In US20120214173A1, “Methods of Identifying Modulators of an Ehd Polypeptide” (priority 2007, published 2012):
Where a chain is given by its changes, count along the chain named. In names and notes the source's numbering stands. Entries after “also recorded” stand apart in the source; their conditions may differ. Read-outs that look alike come from different tables or passages of the source. One block for each molecule: values may come before it.

What was measured:
[1] = Negative stain EM of liposome tubulation/oligomerisation; settings: 2.5 μM protein, PS liposomes
Method: (§1) Amino acid numbering corresponds to mouse EHD2. b, EHD2 binds to adenine nucleotides, as determined by ITC. For clarity, ΔΔH=ΔHn−ΔH1 is plotted. […] Images were acquired close to the basal cell surface. f, Nucleotide hydrolysis was measured by HPLC in the absence (empty symbols) or presence of Folch liposomes (filled symbols). Data represent mean and standard deviation for two (intrinisic reactions) or three (stimulated reactions) independent experiments.
EHD2 was incubated with the indicated liposomes in the presence and absence of nucleotides and analysed by EM as described in Methods. a, EHD2 deformed PS liposomes into tubular networks, here in the presence of ATP-γ-S. b, Enlarged views of the indicated area in a. Note the presence of regularly spaced EHD2 rings (some are indicated with arrows). This even spacing may be due to the curvature stress generated by an EHD2 ring along the axis of the lipid tubule which might disfavour binding of the next ring in the direct vicinity (see below). c, Some of the lipid tubules (especially at higher protein concentration) were tightly packed with EHD2 oligomeric rings. d,e In the presence of ADP and in the absence of nucleotide (f,g), EHD2 also tubulated PS liposomes and formed ring-like structures around the tubules. e,g are enlarged views of the indicated areas in d and f, respectively.
(§2) Reactions were started by the addition of the protein to the final reaction mix and nucleotide hydrolysis was followed using standard HPLC measurement^27. Initial rates were determined by applying a linear fit to data points up to 40% nucleotide hydrolysis. For electron microscopic studies, 2.5 μM EHD2 in 20 mM HEPES (pH 7.5), 150 mM NaCl, 1 mM MgCl2 was incubated for 15 min at 25° C. in the presence of 1 mM nucleotide and 0.05 mg/ml (final concentration) of the indicated liposomes. Samples were spotted on carbon-coated copper grids (Canemco and Marivac) and negatively stained with 2% uranyl acetate.
Nucleotide-independence of liposome tubulation in vitro is also observed for dynamin^16. No noticeable tubule fission or alteration in tubule diameter was found for EHD2 in the presence of ATP. […] Folch liposomes were also tabulated by EHD2. However, with synthetic liposomes containing only 2.5% PIP2 and in the absence of PS, the amount of EHD binding was reduced, and in this less favourable binding condition we only observed tubulation in the presence of ATP-γ-S and ADP but not in the absence of nucleotides (FIG. 7).

[2] = Liposome co-sedimentation (membrane binding) assay; settings: Folch / PS liposomes
Method: as §1
(§3) Nucleotide hydrolysis was measured as described in FIG. 1f. In vitro tubulation activity of PS liposomes was analysed as described in FIG. 1d. f, EGFP-tagged mutants were over-expressed in HeLa cells. […] For each construct, three independent experiments with ≈50 cells/experiments were analysed.
(§4) ITC measurements were performed at 10° C. in 20 mM HEPES (pH 7.5), 300 mM NaCl, 2 mM MgCl2. Liposome binding assays were performed as described previously (www.endocytosis.org). Multiple turnover ATPase assays were performed in 20 mM HEPES (pH 7.5), 135 mM NaCl, 15 mM KCl, 1 mM MgCl2 at 30° C. with 10 μM EHD2 (or mutants) as enzyme and 100 μM ATP as substrate, in the absence or presence of 1 mg/ml Folch liposomes (Sigma-Aldrich).
Mouse full-length EHD2 was expressed in bacteria and purified to homogeneity (FIG. 5). The purified protein was nucleotide-free as judged by HPLC analysis. […] It was previously reported that EHDs—despite having a predicted G-domain—bind to adenine nucleotides^15. […] We still refer to this domain as a G-domain because the sequence and fold (see below) are clearly similar to other G-domains. […] Using synthetic liposomes containing various different phosphatidyl-inositols (PI) (FIG. 1c) we observed best binding to liposomes containing PI(4,5)bisphosphate (PIP2).

[3] = test system: HeLa cells; experiment: Over-expression of EGFP-tagged EHD2 and mutants in HeLa cells (confocal / live imaging); format: cell-based; settings: for distribution of EGFP-tagged protein over-expressed in HeLa cells: 24 h after transfection, fixed; for dynamics of tubules and puncta by EPI-fluorescence live imaging: over-expressed 24 h, imaged approximately 30 min
Method: as §1, §3
Ultracentrifugation. Sedimentation velocity experiments were performed in a Beckman Optima XLA ultracentrifuge, using an An-60Ti rotor. Centrifugation was at 50,000 rev×min and 5° C. at an EHD2 concentration of 15 μM, with scans as fast as possible (˜1.5 min intervals). The data were analysed using DCDT+ v.2^44,45, with the partial specific volume for the protein (from the amino acid composition) and solvent density and viscosity calculated using Sednterp^46. Selected scans (at equal, ˜15 min intervals), and of g(s20,w) (the amount of material sedimenting between s20,w and (s20,w+δs)) and also the residuals for fitting the data with DCDT+, were plotted with the program profit v.5.6.7 (Quantum soft, Switzerland). Cell biology. N-terminal EGFP-tagged EHD2 and all mutants were over-expressed in HeLa cells from the pEGFP-C3 vector (Clontech). HeLa cells were grown as per ECACC guidelines with 10% fetal bovine serum and transfected using Genejuice (Novagen) for transient protein expression. 24 h after transfection, cells were fixed for 10 min at 37° C. in 3% paraformaldehyde and mounted. All confocal images were taken sequentially using a BioRad Radiance system and LaserSharp software (Biorad). For real-time microscopy, transfected cells on glass-bottom Petri dishes (WillCo Wells BV, Amsterdam) were washed with 25 mM HEPES (pH 7.5), 125 mM NaCl, 5 mM KCl, 10 mM D-glucose, 1 mM MgCl2, 2 mM CaCl), and epifluorescence images were taken using an Olympus IX70 microscope (Southhall, UK) and Argon laser (Melles Griot, Carlsbad, Calif.) with a Princeton instruments (Trenton, N.J.) cooled I-PentaMAX camera with MetaMorph software (Universal imaging).
EHD2 wild-type was over-expressed in HeLa cells for 24 h and imaged by EPI-fluorescence for approximately 30 min.
EHD2 T94A was over-expressed in HeLa cells for 24 h and imaged by EPI-fluorescence for approximately 30 min. […] EHD2 I157Q was over-expressed in HeLa cells for 24 h and imaged by EPI-fluorescence for approximately 30 min.

[4] = biological target: T1, EHD2 (Mus musculus, UniProt Q8BH64); experiment: Multiple turnover ATPase assay (nucleotide hydrolysis by HPLC) with or without Folch liposomes; format: biochemical; settings: for kobs stimulated ATPase reaction: presence of 1 mg/ml Folch (or PS) liposomes; for membrane-stimulated ATPase activity (in words): presence of Folch liposomes
T1 construct: Mouse EHD2 full-length protein and all mutants were expressed as N-terminal His-fusions followed by a PreScission cleavage site; His (N, cleaved yes); made in house; host or cells: Escherichia coli BL21 DE3 Rosetta
T1 sequence (Q8BH64 1-543): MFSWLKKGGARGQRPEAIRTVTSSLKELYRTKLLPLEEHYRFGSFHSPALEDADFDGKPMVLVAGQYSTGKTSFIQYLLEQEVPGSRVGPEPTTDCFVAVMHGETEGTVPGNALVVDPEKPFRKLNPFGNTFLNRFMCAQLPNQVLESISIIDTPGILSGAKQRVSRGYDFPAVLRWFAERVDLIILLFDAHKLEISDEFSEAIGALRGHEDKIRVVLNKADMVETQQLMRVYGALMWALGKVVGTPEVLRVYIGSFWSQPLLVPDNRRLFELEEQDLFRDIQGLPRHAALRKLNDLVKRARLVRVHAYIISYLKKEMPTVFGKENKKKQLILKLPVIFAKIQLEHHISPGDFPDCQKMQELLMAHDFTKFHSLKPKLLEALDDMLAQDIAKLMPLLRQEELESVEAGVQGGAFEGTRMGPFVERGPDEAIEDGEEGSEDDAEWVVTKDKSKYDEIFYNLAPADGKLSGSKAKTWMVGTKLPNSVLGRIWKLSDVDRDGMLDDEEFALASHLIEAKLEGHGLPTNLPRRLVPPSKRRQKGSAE
Method: as §1, §4, §2
We next monitored the effect of membrane-binding on the ATPase activity of. EHD2 under multiple-turnover conditions (10-fold excess of ATP over EHD2), in the presence and absence of Folch liposoines (FIG. 1f). The intrinsic/background ATPase activity is extremely slow (kobs=0.7 h^−1) but is stimulated 8-fold in the presence of Folch or PS liposomes (kobs=5.6 h^−1).

[5] = test system: Q8BH64
[6] = biological target: T2, isolated EH-domain of EHD2 (mouse, UniProt Q8BH64 443-543, limits assumed); experiment: ITC at 10 °C, 100 mM HEPES pH 7.5, 50 mM NaCl, 200 µM CaCl2; peptide against the EH-domain of EHD2
T2 construct: domain: EH-domain; ITC buffer contained 200 µM CaCl2
T2 sequence (looked up): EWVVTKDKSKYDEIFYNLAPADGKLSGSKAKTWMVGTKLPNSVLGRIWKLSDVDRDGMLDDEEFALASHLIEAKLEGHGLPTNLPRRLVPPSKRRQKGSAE

[7] = biological target: T2, isolated EH-domain of EHD2; experiment: ITC at 10 °C, peptide against the EH-domain of EHD2
[8] = biological target: Q8BH64; remark: listed apart in the source

Molecule: EHD2: mouse full-length EHD2 expressed in bacteria; EGFP-tagged in HeLa cells
liposome tubulation / oligomerisation by EM [1]: deforms PS liposomes in a nucleotide-independent manner into 20 nm-diameter tubules
binding to liposomes (co-sedimentation) [2]: efficient binding
distribution of EGFP-tagged protein over-expressed in HeLa cells [3]: localised to puncta and tubular networks close to the cell surface; also recorded: marked punctate and tubular structures
dynamics of tubules and puncta by EPI-fluorescence live imaging [3]: Some of the tubules and puncta are dynamic
kobs intrinsic/background ATPase activity ([4]; 10 μM protein, 100 μM ATP, 30° C., absence of liposomes): 0.7 h⁻¹
kobs stimulated ATPase reaction ([4]; 10 μM protein, 100 μM ATP, 30° C.): 5.6 h⁻¹
kobs stimulated ATPase reaction ([4]; 10 μM protein, 100 μM ATP, 30° C., listed as wt): 5.4 h⁻¹
stimulation of intrinsic ATP reaction by liposomes ([4]; Folch or PS liposomes versus no liposomes): 8 fold
stimulated nucleotide hydrolysis slower than dynamin ([4]; stimulated condition, versus dynamin GTP hydrolysis): 600 fold

Molecule: EHD2 deletion mutant of the EH-domain (ΔEH)
membrane-stimulated ATPase activity [5]: did not show any membrane-stimulated ATPase activity

B2: peptide 418-RMGPFVER from EHD2 (peptide)
peptide: RMGPFVER
notes: also called top site GPF peptide
binding result [7]: no binding

B3: EHD2 double mutant of the two side-site xPF motifs (F122A/F128A) (protein)
chain: T1 sequence (Q8BH64 1-543) with F122A, F128A
membrane-stimulated ATPase activity [8]: did not show any membrane-stimulated ATPase activity
liposome tubulation / oligomerisation by EM [1]: did not find any regular oligomers on liposomes
membrane-stimulated ATPase activity (in words) [4]: did not show any membrane-stimulated ATPase activity
membrane-stimulated ATPase activity (in words) ([4]; listed as mutation of the side site xPFs motif): completely prevented the membrane-stimulated ATPase reaction

B4: I157Q: EHD2 mutant with re-introduced catalytic glutamine in the active site (protein, UniProt Q8BH64 1-543, looked up, variant I157Q)
EH domain-containing protein 2: T1 sequence (Q8BH64 1-543) with I157Q
liposome tubulation / oligomerisation by EM [1]: tubulated liposomes
distribution of EGFP-tagged protein over-expressed in HeLa cells [3]: exclusively punctate staining; also recorded: labelled only very short tubules and puncta
dynamics of tubules and puncta by EPI-fluorescence live imaging [3]: No tubules can be found and the puncta are mostly motile
intrinsic/basal ATPase activity (in words) ([4]; absence of membranes): hydrolysed ATP faster than wild-type
membrane-stimulated ATPase activity (in words) [4]: not further stimulated by membranes

The next lines start with the values.

Kd [6]: 130 µM
B1: peptide 124-KLNPFGNT from EHD2 (peptide)
peptide: KLNPFGNT
notes: also called side site NPF peptide

binding result [7]: no binding
B5: peptide 118-PEKPFRKL from EHD2 (peptide)
peptide: PEKPFRKL
notes: also called side site KPF peptide
